These results are taken from patent US20230218743A1 (IMMUNITYBIO, published 2023).

Where two headings read alike, the source gives them in different places.

In assay [1] the target is SARS-CoV-2 Spike protein on live SARS-CoV-2 (SARS-CoV-2, UniProt P0DTC2 14-1273). In words: cell-based or functional assay.
Assay [2] deals with T1, SARS-CoV-2 Spike receptor binding domain, wild-type (SARS-CoV-2, UniProt P0DTC2 319-541).
T1 construct: domain: RBD
In words: Octet, IgG1 on AHC biosensor.

The target in assay [3] is T2, RBD-SD1 (SARS-CoV-2, UniProt P0DTC2 319-591). As to the kind of experiment: Octet, IgG1 on AHC biosensor.
The target of assay [4] is T2, RBD-SD1. As to the kind of experiment: epitope analysis, FIG. 4B.
Assay [5] deals with T2, RBD-SD1.
Assay [6] deals with T2, RBD-SD1. This is another data set of the same source.
Assay [7] has as its target T2, RBD-SD1. This is another data set of the same source.

B1: N-612-007 (antibody, V domains shown)
VH: EVQLVESGGGLVQPGGSLRLSCAASGFTFSNYAMHWVRQAPGKGLEWVSAISGNGGSTGYADSVKGRFTISRDNSKNTLYLQMNSLRAEDTAVYYCARDRWYVKNAFDVWGQGTLVTVSS
VL: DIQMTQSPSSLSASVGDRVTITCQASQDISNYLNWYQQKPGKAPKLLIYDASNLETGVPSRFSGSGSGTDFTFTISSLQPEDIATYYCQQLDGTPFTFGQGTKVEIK
For B1, the “live SARS-CoV-2 neutralization IC50” value in assay [1] is 0.0452 µg/mL. Besides, the binding result (in assay [2]; with RBD-SD1 [3]) was “no binding (tested: 2x dilution series starting at 100 nM)” throughout.

B2: N-612-017 (antibody, V domains shown)
VH: EVQLVESGGGLVQPGGSLRLSCAASGFTFSSYAMHWVRQAPGKGLEWVSAIWGSGSNTYYADSVKGRFTISRDNSKNTLYLQMNSLRAEDTAVYYCARGRDLAAFTKTAFDVWGQGTLVTVSS
VL: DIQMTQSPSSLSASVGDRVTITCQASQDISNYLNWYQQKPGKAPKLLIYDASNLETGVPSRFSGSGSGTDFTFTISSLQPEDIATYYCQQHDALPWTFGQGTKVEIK
In general, koff refers to the first-order rate constant of dissociation. The low end stands for slow dissociation, the high end for fast dissociation. A word on the Kd: it is a measure of binding affinity in units of concentration. High values mean lower affinity, low ones higher affinity. What is called kon is the second-order rate constant of association. Consider B2, for which, in the assay with RBD-SD1 [4], the koff was determined as 0.0019 s⁻¹. The “live SARS-CoV-2 neutralization IC50” value in assay [1] was found to be 0.0756 µg/mL. In the assay with RBD-SD1 [5], this molecule had a Kd of 6.19 nM, a koff of 0.00627 s⁻¹ and a kon of 1.01e+06 M⁻¹ s⁻¹.

B3: 612-017 (scFv, V domains shown)
VH: EVQLVESGGGLVQPGGSLRLSCAASGFTFSSYAMHWVRQAPGKGLEWVSAIWGSGSNTYYADSVKGRFTISRDNSKNTLYLQMNSLRAEDTAVYYCARGRDLAAFTKTAFDVWGQGTLVTVSS
VL: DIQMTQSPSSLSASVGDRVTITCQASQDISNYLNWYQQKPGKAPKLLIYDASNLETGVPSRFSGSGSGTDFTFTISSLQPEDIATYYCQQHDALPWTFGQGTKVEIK
In the case of B3, the Kd with RBD-SD1 [6] amounted to 10.2 nM.

B4: N-612-002 (antibody, V domains shown)
VH: EVQLVESGGGLVQPGGSLRLSCAASGFTFSSYTMHWVRQAPGKGLEWVSAISGSGGSTYYADSVKGRFTISRDNSKNTLYLQMNSLRAEDTAVYYCARDLFDFWGFDVWGQGTLVTVSS
VL: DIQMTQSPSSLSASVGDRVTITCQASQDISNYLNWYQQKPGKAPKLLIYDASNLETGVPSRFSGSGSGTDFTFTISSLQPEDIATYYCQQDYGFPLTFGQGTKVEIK
In the case of B4, the binding result (in assay [2]; with RBD-SD1 [3]) was “no binding (tested: 2x dilution series starting at 100 nM)” in each case.

B5: N-612-044 (antibody, V domains shown)
VH: EVQLVESGGGLVQPGGSLRLSCAASGFTFSNYAMHWVRQAPGKGLEWVSAISGSGGSTYYADSVKGRFTISRDNSKNTLYLQMNSLRAEDTAVYYCARDLSFWLTYHLASAFDVWGQGTLVTVSS
VL: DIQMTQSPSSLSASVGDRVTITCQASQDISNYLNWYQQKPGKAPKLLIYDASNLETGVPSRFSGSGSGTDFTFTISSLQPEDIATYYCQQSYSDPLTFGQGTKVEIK
For B5, the binding result (in assay [2]; in the assay with RBD-SD1 [3]) was “no binding (tested: 2x dilution series starting at 100 nM)” each time.

B6: N-612-004 (antibody, V domains shown)
VH: EVQLVESGGGLVQPGGSLRLSCAASGFTFSSYYMHWVRQAPGKGLEWVSAISGSGGYTYYADSVKGRFTISRDNSKNTLYLQMNSLRAEDTAVYYCARDRDHAYDWGFDVWGQGTLVTVSS
VL: DIQMTQSPSSLSASVGDRVTITCQASQDISNYLNWYQQKPGKAPKLLIYDASNLETGVPSRFSGSGSGTDFTFTISSLQPEDIATYYCQQWADWPLTFGQGTKVEIK
For the molecule B6, the “live SARS-CoV-2 neutralization IC50” value in assay [1] came out at 0.194 µg/mL.

B7: 612-056 (scFv, V domains shown)
VH: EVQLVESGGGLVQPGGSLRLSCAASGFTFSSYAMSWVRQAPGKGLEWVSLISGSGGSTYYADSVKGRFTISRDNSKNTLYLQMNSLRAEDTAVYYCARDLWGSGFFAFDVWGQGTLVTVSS
VL: DIQMTQSPSSLSASVGDRVTITCQASQDISNYLNWYQQKPGKAPKLLIYDASNLETGVPSRFSGSGSGTDFTFTISSLQPEDIATYYCQQDAGTPLTFGQGTKVEIK
The molecule B7 returned a Kd with RBD-SD1 [7] of 4.77 nM.

B8: N-612-056 (antibody, V domains shown)
VH: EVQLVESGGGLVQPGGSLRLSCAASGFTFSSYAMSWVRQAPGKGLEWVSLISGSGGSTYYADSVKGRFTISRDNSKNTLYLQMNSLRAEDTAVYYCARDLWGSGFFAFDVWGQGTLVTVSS
VL: DIQMTQSPSSLSASVGDRVTITCQASQDISNYLNWYQQKPGKAPKLLIYDASNLETGVPSRFSGSGSGTDFTFTISSLQPEDIATYYCQQDAGTPLTFGQGTKVEIK
In the case of B8, the “live SARS-CoV-2 neutralization IC50” value in assay [1] was 0.855 µg/mL.

B9: N-612-014 (antibody, V domains shown)
VH: EVQLVESGGGLVQPGGSLRLSCAASGFTFSSYAMTWVRQAPGKGLEWVSYISGSGGGTYYADSVKGRFTISRDNSKNTLYLQMNSLRAEDTAVYYCARDRWASGWLAFDVWGQGTLVTVSS
VL: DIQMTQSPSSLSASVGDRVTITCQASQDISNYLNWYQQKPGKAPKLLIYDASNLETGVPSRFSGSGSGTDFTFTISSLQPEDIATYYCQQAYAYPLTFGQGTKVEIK
Regarding B9, the “live SARS-CoV-2 neutralization IC50” value in assay [1] came out at 0.00791 µg/mL. Besides, the binding result (in assay [2]; with RBD-SD1 [3]) was “no binding (tested: 2x dilution series starting at 100 nM)” throughout.
